From patent US20250243277A1 (AVACTA LIFE SCIENCES, published 2025)

B1: Clone 244 (designed binder)
chain: MIPGGLSEAKPATPEIQEIVDKVKPQLEEKTGETYGKLEAVQYKTQVVWDSEALPIDGTNYYIKVRAGDNKYMHLKVFKSLRWWPWDAVGEDLVLTGYQVDKNKDDELTGF
notes: His-tagged
B2: Clone 250 (designed binder)
chain: MIPGGLSEAKPATPEIQEIVDKVKPQLEEKTGETYGKLEAVQYKTQVVRDPDVFVFSGTNYYIKVRAGDNKYMHLKVFKSLWYYNDNQSGEDLVLTGYQVDKNKDDELTGF
notes: His-tagged
B3: Clone 25 (designed binder)
chain: MIPGGLSEAKPATPEIQEIVDKVKPQLEEKTGETYGKLEAVQYKTQVVVRHPRWFFIGTNYYIKVRAGDNKYMHLKVFKSLKKHGDEVTLEDLVLTGYQVDKNKDDELTGF
notes: His-tagged
B4: Clone 46 (designed binder)
chain: MIPGGLSEAKPATPEIQEIVDKVKPQLEEKTGETYGKLEAVQYKTQVVVQHSLWYFQGTNYYIKVRAGDNKYMHLKVFKSLFKHPEENPVEDLVLTGYQVDKNKDDELTGF
notes: His-tagged
B5: Clone 229 (designed binder)
chain: MIPGGLSEAKPATPEIQEIVDKVKPQLEEKTGETYGKLEAVQYKTQVVHSSSKPYIHGTNYYIKVRAGDNKYMHLKVFKSLNWNRPYNDLEDLVLTGYQVDKNKDDELTGF
notes: His-tagged
B6: Clone 218 (designed binder)
chain: MIPGGLSEAKPATPEIQEIVDKVKPQLEEKTGETYGKLEAVQYKTQVVWRVYFPDFKGTNYYIKVRAGDNKYMHLKVFKSLDEVDEIPHFEDLVLTGYQVDKNKDDELTGF
notes: His-tagged
B7: Clone 235 (designed binder)
chain: MIPGGLSEAKPATPEIQEIVDKVKPQLEEKTGETYGKLEAVQYKTQVVWNPPSLPISGTNYYIKVRAGDNKYMHLKVFKSLAWDNTAKHGEDLVLTGYQVDKNKDDELTGF
notes: His-tagged
B8: Clone 243 (designed binder)
chain: MIPGGLSEAKPATPEIQEIVDKVKPQLEEKTGETYGKLEAVQYKTQVVWKQITLPVDGTNYYIKVRAGDNKYMHLKVFKSLHWDEYEYDEEDLVLTGYQVDKNKDDELTGF
notes: His-tagged
B9: Clone 23 (designed binder)
chain: MIPGGLSEAKPATPEIQEIVDKVKPQLEEKTGETYGKLEAVQYKTQVVYWEHHHYGFGTNYYIKVRAGDNKYMHLKVFKSLAWPEIDPPVEDLVLTGYQVDKNKDDELTGF
notes: His-tagged
B10: Clone 227 (designed binder)
chain: MIPGGLSEAKPATPEIQEIVDKVKPQLEEKTGETYGKLEAVQYKTQVVYVRWHEYGFGTNYYIKVRAGDNKYMHLKVFKSLSNQLIPQPIEDLVLTGYQVDKNKDDELTGF
notes: His-tagged
B11: Clone 82 (designed binder)
chain: MIPGGLSEAKPATPEIQEIVDKVKPQLEEKTGETYGKLEAVQYKTQVVFWQLHRYGFGTNYYIKVRAGDNKYMHLKVFKSLEWNRLSPLWEDLVLTGYQVDKNKDDELTGF
notes: His-tagged
B12: Clone 214 (designed binder)
chain: MIPGGLSEAEPATPEIQEIVDKVKPQLEEKTGETYGKLEAVQYKTQVVIKIHHGSWEGTNYYIKVRAGDNKYMHLKVFKSLLFWQKQFYREDLVLTGYQVDKNKDDELTGF
notes: His-tagged
B13: Clone 232 (designed binder)
chain: MIPGGLSEAKPATPEIQEIVDKVKPQLEEKTGETYGKLEAVQYKTQVVTKHSATFFHGTNYYIKVRAGDNKYMHLKVFKSLIGNGQYWYREDLVLTGYQVDKNKDDELTGF
notes: His-tagged
B14: Clone 237 (designed binder)
chain: MIPGGLSEAKPATPEIQEIVDKVKPQLEEKTGETYGKLEAVQYKTQVVVAGLKWHWEGTNYYIKVRAGDNKYMHLKVFKSLIYASQYDYREDLVLTGYQVDKNKDDELTGF
notes: His-tagged
B15: Clone 234 (designed binder)
chain: MIPGGLSEAKPATPEIQEIVDKVKPQLEEKTGETYGKLEAVQYKTQVVRNSGVWEFEGTNYYIKVRAGDNKYMHLKVFKSLGKYKTNWYFEDLVLTGYQVDKNKDDELTGF
notes: His-tagged
B16: Clone 249 (designed binder)
chain: MIPGGLSEAKPATPEIQEIVDKVKPQLEEKTGETYGKLEAVQYKTQVVIYYPIWGFQGTNYYIKVRAGDNKYMHLKVFKSLRWSKDGATAEDLVLTGYQVDKNKDDELTGF
notes: His-tagged
B17: Clone 22 (designed binder)
chain: MIPGGLSEAKPATPEIQEIVDKVKPQLEEKTGETYGKLEAVQYKTQVVHRLHFPIYYGTNYYIKVRAGDNKYMHLKVFKSLHFTLPTQHPEDLVLTGYQVDKNKDDELTGF
notes: His-tagged
B18: Clone 245 (designed binder)
chain: MIPGGLSEAKPATPEIQEIVDKVKPQLEEKTGETYGKLEAVQYKTQVVGYLELWKWSGTNYYIKVRAGDNKYMHLKVFKSLYNLHHPHKDEDLVLTGYQVDKNKDDELTGF
notes: His-tagged
B19: Clone 231 (designed binder)
chain: MIPGGLSEAKPATPEIQEIVDKVKPQLEEKTGETYGKLEAVQYKTQVVARWHWFHHFGTNYYIKVRAGDNKYMHLKVFKSLNPINGQETWEDLVLTGYQVDKNKDDELTGF
notes: His-tagged
B20: Clone 221 (designed binder)
chain: MIPGGLSEAKPATPEIQEIVDKVKPQLEEKTGETYGKLEAVQYKTQVVIQDVDWRLWGTNYYIKVRAGDNKYMHLKVFKSLVPSDWSKTIEDLVLTGYQVDKNKDDELTGF
notes: His-tagged
B21: Clone 251 (designed binder)
chain: MIPGGLSEAKPATPEIQEIVDKVKPQLEEKTGETYGKLEAVQYKTQVVATDQDWRKWGTNYYIKVRAGDNKYMHLKVFKSLIPLNWQLQEEDLVLTGYQVDKNKDDELTGF
notes: His-tagged
B22: Clone 238 (designed binder)
chain: MIPGGLSEAKPATPEIQEIVDKVKPQLEEKTGETYGKLEAVQYKTQVVRHKGLWQFEGTNYYIKVRAGDNKYMHLKVFKSLSHQPYRATIEDLVLTGYQVDKNKDDELTGF
notes: His-tagged
B23: Clone 239 (designed binder)
chain: MIPGGLSEAKPATPEIQEIVDKVKPQLEEKTGETYGKLEAVQYKTQVVLTIPPTAFSGTNYYIKVRAGDNKYMHLKVFKSLGWNLHEVALEDLVLTGYQVDKNKDDELTGF
notes: His-tagged
B24: Clone 226 (designed binder)
chain: MIPGGLSEAKPATPEIQEIVDKVKPQLEEKTGETYGKLEAVQYKTQVVYKHDDEYGFGTNYYIKVRAGDNKYMHLKVFKSLKWTNRANKPEDLVLTGYQVDKNKDDELTGF
notes: His-tagged
B25: Clone 242 (designed binder)
chain: MIPGGLSEAKPATPEIQEIVDKVKPQLEEKTGETYGKLEAVQYKTQVVVEWSESGYDGTNYYIKVRAGDNKYMHLKVFKSLRLKSNVNIAEDLVLTGYQVDKNKDDELTGF
notes: His-tagged
B26: Clone 216 (designed binder)
chain: MIPGGLSEAKPATPEIQEIVDKVKPQLEEKTGETYGKLEAVQYKTQVVFTEVKPFVEGTNYYIKVRAGDNKYMHLKVFKSLSWNAPFPAGEDLVLTGYQVDKNKDDELTGF
notes: His-tagged
B27: Clone 215 (designed binder)
chain: MIPGGLSEAKPATPEIQEIVDKVKPQLEEKTGETYGKLEAVQYKTQVVRRVFFPEFPGTNYYIKVRAGDNKYMHLKVFKSLEQPIEGDLWEDLVLTGYQVDKNKDDELTGF
notes: His-tagged
B28: Clone 230 (designed binder)
chain: MIPGGLSEAKPATPEIQEIVDKVKPQLEEKTGETYGKLEAVQYKTQVVHVSNFIIPHGTNYYIKVRAGDNKYMHLKVFKSLNWEGNDLATEDLVLTGYQVDKNKDDELTGF
notes: His-tagged
B29: Clone 220 (designed binder)
chain: MIPGGLSEAKPATPEIQEIVDKVKPQLEEKTGETYGKLEAVQYKTQVVNRWNIREFEGTNYYIKVRAGDNKYMHLKVFKSLINVPVTELLEDLVLTGYQVDKNKDDELTGF
notes: His-tagged
B30: Clone 228 (designed binder)
chain: MIPGGLSEAKPATPEIQEIVDKVKPQLEEKTGETYGKLEAVQYKTQVVVWTSDDAWQGTNYYIKVRAGDNKYMHLKVFKSLFKFEIYKHTEDLVLTGYQVDKNKDDELTGF
notes: His-tagged
B31: Clone 241 (designed binder)
chain: MIPGGLSEAKPATPEIQEIVDKVKPQLEEKTGETYGKLEAVQYKTQVVSRLHFPNFQGTNYYIKVRAGDNKYMHLKVFKSLNLEHPTDETEDLVLTGYQVDKNKDDELTGF
notes: His-tagged
B32: Clone 222 (designed binder)
chain: MIPGGLSEAEPATPEIQEIVDKVKPQLEEKTGETYGKLEAVQYKTQVVQRDHFPEFPGTNYYIKVRAGDNKYMHLKVFKSLGHELYALYAEDLVLTGYQVDKNKDDELTGF
notes: His-tagged
B33: Clone 248 (designed binder)
chain: MIPGGLSEAKPATPEIQEIVDKVKPQLEEKTGETYGKLEAVQYKTQVVLQLPPRPHDGTNYYIKVRAGDNKYMHLKVFKSLNWEPAQHPVEDLVLTGYQVDKNKDDELTGF
notes: His-tagged

These binders were tested against T1, human PD-L1-Fc (R&D Systems) (human, UniProt Q9NZQ7 19-239) (assay: soluble Affimer ELISA).
T1 construct: Bought from R&D Systems; Biotinylated in-house for the phage selection; also called huPD-L1-Fc; human PD-L1-Fc antigen; not shown: Fc part of the bought fusion
T1 sequence (Q9NZQ7 19-239 limits assumed): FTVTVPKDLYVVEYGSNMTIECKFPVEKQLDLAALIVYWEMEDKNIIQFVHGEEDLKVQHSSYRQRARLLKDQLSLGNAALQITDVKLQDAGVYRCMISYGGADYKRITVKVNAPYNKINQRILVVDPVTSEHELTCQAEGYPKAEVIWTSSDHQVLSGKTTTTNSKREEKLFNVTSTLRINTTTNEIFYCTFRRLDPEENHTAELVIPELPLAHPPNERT

Binding result, binds:
B1, B2, B3, B4, B5, B6, B7, B8, B9, B10, B11, B12, B13, B14, B15, B16, B17, B18, B19, B20, B21, B22, B23, B24, B25, B26, B27, B28, B29, B30, B31, B32, B33
